Reference: paper PMC5297747, “Pnserpin: A Novel Serine Protease Inhibitor from Extremophile Pyrobaculum neutrophilum” (International Journal of Molecular Sciences, 2017)

B1: proteinase k (enzyme, UniProt P06873 106-384, looked up)
chain: AAQTNAPWGLARISSTSPGTSTYYYDESAGQGSCVYVIDTGIEASHPEFEGRAQMVKTYYYSSRDGNGHGTHCAGTVGSRTYGVAKKTQLFGVKVLDDNGSGQYSTIIAGMDFVASDKNNRNCPKGVVASLSLGGGYSSSVNSAAARLQSSGVMVAVAAGNNNADARNYSPASEPSVCTVGASDRYDRRSSFSNYGSVLDIFGPGTSILSTWIGGSTRSISGTSMATPHVAGLAAYLMTLGKTTAASACRYIADTANKGDLSNIPFGTVNLLAYNNYQA
notes: proteinase K; printed molecular weight 28 kD; also called PRK
B2: Pnserpin (natural protein, Pyrobaculum neutrophilum, UniProt B1YBN4 1-393, looked up)
chain: MRLWALLPVTLALVVLLIFIVSLKEASTHSPPTSHTSAPAPLESGSYGDFAVSFYKRIALERLRENLVLSPYSVYKAFAMAYAGAAGETREEIGRVFGFGDDVCALAQAGRGVEEAVAAWVQLGFPLREEYERELSCLGAELRRVDFAERSALVEINRWIEEKTRGYVKDLIPTDYPRSQDIRVVLTSALFFNGSWWPLQFGRIGKREFQGVGPVEFMKLDLGSCVPSLRGRVSADLTVVELRFENTDVAMYVIMPKSLEDYVKGLTYEKLKRDITELPDEIVAVTMPLFTAEFKDSLKKVLIDIGIRSAFDKTRANFTRMSPIRIYIDEVFHGAYIKADEKGVVATAATAVVFVPVCAKVGGMEVVIDRPFLFVLADRRDGTIYFIGHVVKP
B3: PnCHT, chymotrypsin-like serine protease of Pyrobaculum neutrophilum (enzyme, UniProt B1YBJ2 1-289, looked up)
chain: MDLSGLVEKVARSVVGVAARGVGAVGEGFGSAFAIDRGVYATAYHVVAQAGEVALITPEGEVADAVVAAADPAEDLAILYSDLYAVPLSLGSALRLRVGQGVVAVGFPLALLDKPTATFGIVSAVGRSLRAGDRFFEYLVQTDAAINPGNSGGPLVNLSGEAVGVCSAVIAGAQGLGFAVPIDLVRIMYQMVKRYGRYVRPALGVYVVALNKALKALYGLPTDRGLLVVDVVPSSPAEEMGIARGDILTKVDGREVANVFELRLLIGEALIQGRTPRIEVIRGGRRIEL
notes: chymotrypsin-like serine protease of Pyrobaculum neutrophilum, GenBank ACB40794.1; full length gene synthesized and cloned into pET-28a(+); printed molecular weight 36 kD; source: E. coli BL21 (DE3) CodonPlus, purified (nickel-chelating chromatography)
B4: subtilisin Carlsberg (enzyme, UniProt P00780 106-379, looked up)
chain: AQTVPYGIPLIKADKVQAQGFKGANVKVAVLDTGIQASHPDLNVVGGASFVAGEAYNTDGNGHGTHVAGTVAALDNTTGVLGVAPSVSLYAVKVLNSSGSGSYSGIVSGIEWATTNGMDVINMSLGGASGSTAMKQAVDNAYAKGVVVVAAAGNSGSSGNTNTIGYPAKYDSVIAVGAVDSNSNRASFSSVGAELEVMAPGAGVYSTYPTNTYATLNGTSMASPHVAGAAALILSKHPNLSASQVRNRLSSTATYLGSSFYYGKGLINVEAAAQ
notes: subtilisin Carlsberg; printed molecular weight 27 kD; also called SUC

What was measured:
Pnserpin [1] = target: B2; test: progress curve of protease inhibition; 40 °C; buffer B (100 mM HEPES-NaOH pH 7.5, 200 mM NaCl, 10 mM CaCl2, 0.01% triton X-100, 0.1% glycerol); 1 mM Suc-AAPF-pNA or MeO-SucAAPV-pNA as substrate; various concentrations of Pnserpin; absorption at 410 nm; kass = kunc × (1 + [S]/KM); conditions: both partners purified
[2] = target: B3; test: cell-based or functional assay
subtilisin Carlsberg = target: B4; test: cell-based or functional assay
proteinase k = target: B1; test: cell-based or functional assay
[3] = target: bovine pancreatic trypsin (bovine); test: cell-based or functional assay
bovine pancreatic trypsin (bovine), sequence (P00760 24-246): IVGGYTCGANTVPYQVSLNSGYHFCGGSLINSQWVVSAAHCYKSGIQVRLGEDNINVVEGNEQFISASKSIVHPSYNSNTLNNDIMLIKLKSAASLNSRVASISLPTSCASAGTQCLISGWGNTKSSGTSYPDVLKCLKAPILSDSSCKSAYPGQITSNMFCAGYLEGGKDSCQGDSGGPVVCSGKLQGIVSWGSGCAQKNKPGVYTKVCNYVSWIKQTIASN

bovine plasma thrombin = bovine plasma thrombin (bovine); test: cell-based or functional assay
[4] = target: porcine pancreatic elastase (porcine, UniProt P00772 27-266); test: cell-based or functional assay
porcine pancreatic elastase, sequence (P00772 27-266): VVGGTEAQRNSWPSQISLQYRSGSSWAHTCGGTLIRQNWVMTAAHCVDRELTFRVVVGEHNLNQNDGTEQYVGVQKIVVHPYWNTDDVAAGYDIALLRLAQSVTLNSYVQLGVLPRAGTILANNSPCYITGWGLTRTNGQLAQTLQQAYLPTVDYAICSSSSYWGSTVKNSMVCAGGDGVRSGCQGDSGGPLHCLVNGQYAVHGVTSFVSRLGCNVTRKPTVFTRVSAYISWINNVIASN

Pnserpin [5] = target: B2; test: progress curve of protease inhibition; 80 °C; buffer B; 1 mM Suc-AAPF-pNA as substrate; various concentrations of Pnserpin; absorption at 410 nm; kass = kunc × (1 + [S]/KM); conditions: both partners purified

Binder: B1
kon (Pnserpin [1]): 198000 M⁻¹ s⁻¹

Binder: B2
stoichiometry of inhibition (SI), incubation at 20 °C; residual protease activity [2]: 32.7
stoichiometry of inhibition (SI), incubation at 40 °C; residual protease activity [2]: 23.9
stoichiometry of inhibition (SI), incubation at 60 °C; residual protease activity [2]: 19.8
stoichiometry of inhibition (SI), incubation at 80 °C; residual protease activity [2]: 11.3
stoichiometry of inhibition (SI), incubation at 100 °C; residual protease activity [2]: 6.82
stoichiometry of inhibition (SI), incubation at 20 °C; residual protease activity (subtilisin Carlsberg): 10
stoichiometry of inhibition (SI), incubation at 30 °C; residual protease activity (subtilisin Carlsberg): 8.76
stoichiometry of inhibition (SI), incubation at 40 °C; residual protease activity (subtilisin Carlsberg): 6.95
stoichiometry of inhibition (SI), incubation at 50 °C; residual protease activity (subtilisin Carlsberg): 5.34
stoichiometry of inhibition (SI), incubation at 60 °C; residual protease activity (subtilisin Carlsberg): 3.97
stoichiometry of inhibition (SI), incubation at 70 °C; residual protease activity (subtilisin Carlsberg): 2.67
stoichiometry of inhibition (SI), incubation at 20 °C; residual protease activity (proteinase k): 9.99
stoichiometry of inhibition (SI), incubation at 30 °C; residual protease activity (proteinase k): 7.39
stoichiometry of inhibition (SI), incubation at 40 °C; residual protease activity (proteinase k): 5.99
stoichiometry of inhibition (SI), incubation at 50 °C; residual protease activity (proteinase k): 4.69
stoichiometry of inhibition (SI), incubation at 60 °C; residual protease activity (proteinase k): 2.75
stoichiometry of inhibition (SI), incubation at 70 °C; residual protease activity (proteinase k): 2.28
stoichiometry of inhibition (SI), incubation at 20 °C; residual protease activity [3]: 10.2
stoichiometry of inhibition (SI), incubation at 30 °C; residual protease activity [3]: 6.14
stoichiometry of inhibition (SI), incubation at 40 °C; residual protease activity [3]: 5.16
stoichiometry of inhibition (SI), incubation at 50 °C; residual protease activity [3]: 2.53
stoichiometry of inhibition (SI), incubation at 20 °C; residual protease activity (bovine plasma thrombin): 21.1
stoichiometry of inhibition (SI), incubation at 30 °C; residual protease activity (bovine plasma thrombin): 15.2
stoichiometry of inhibition (SI), incubation at 40 °C; residual protease activity (bovine plasma thrombin): 12.2
stoichiometry of inhibition (SI), incubation at 50 °C; residual protease activity (bovine plasma thrombin): 9.31
stoichiometry of inhibition (SI), incubation at 20 °C; residual protease activity [4]: 10.1
stoichiometry of inhibition (SI), incubation at 30 °C; residual protease activity [4]: 9.33
stoichiometry of inhibition (SI), incubation at 40 °C; residual protease activity [4]: 7.9
stoichiometry of inhibition (SI), incubation at 50 °C; residual protease activity [4]: 7.41
stoichiometry of inhibition (SI), incubation at 60 °C; residual protease activity [4]: 4.84
stoichiometry of inhibition (SI), incubation at 70 °C; residual protease activity [4]: 2.74

Binder: B3
kon (Pnserpin [5]): 107000 M⁻¹ s⁻¹
kon (Pnserpin [1]): 39000 M⁻¹ s⁻¹

Binder: B4
kon (Pnserpin [1]): 130000 M⁻¹ s⁻¹
